Reference: patent US20080187548A1 (LUDWIG INSTITUTE FOR CANCER RESEARCH, published 2008)

Tests used:
Assay in all cases: cell-based or functional assay
HLA-DRB1*0701 = HLA-DRB1*0701 (human)
HLA-DRB1*0101 = HLA-DRB1*0101 (human)
HLA-DRB1*0401 = HLA-DRB1*0401 (human)
HLA-DRB1*0301 = HLA-DRB1*0301 (human)

Binder: TIRLTAADHRQLQLS [NY-ESO-1 peptide, amino acids 134-148 (TIRLTAADHRQLQLS; SEQ ID NO: 2)]
- Responding patients (%) (HLA-DRB1*0701): 14.3%
- Responding patients (n = 38) (HLA-DRB1*0701): 1 patients
- Responding patients (%) (HLA-DRB1*0101): 28.6%
- Responding patients (n = 38) (HLA-DRB1*0101): 2 patients
- Responding patients (%) (HLA-DRB1*0401): 28.6%
- Responding patients (n = 38) (HLA-DRB1*0401): 2 patients
- Responding patients (%) (HLA-DRB1*0301): 10%
- Responding patients (n = 38) (HLA-DRB1*0301): 1 patients
